Test results reported in article PMC6805997 (mBio, 2019).

Key:
[1] = biological target: T1, recombinant IsdB (iron-regulated surface determinant protein B), without signal peptide and sorting signal (Staphylococcus aureus, UniProt A6QG30); experiment: BLI; conditions: both partners purified
T1 construct: source: E. coli BL21(DE3), pET15b, purified (HiTrap Talon column)

[2] = biological target: T1, recombinant IsdB (iron-regulated …); experiment: ELISA; conditions: both partners purified

T1 sequence (A6QG30 41-613): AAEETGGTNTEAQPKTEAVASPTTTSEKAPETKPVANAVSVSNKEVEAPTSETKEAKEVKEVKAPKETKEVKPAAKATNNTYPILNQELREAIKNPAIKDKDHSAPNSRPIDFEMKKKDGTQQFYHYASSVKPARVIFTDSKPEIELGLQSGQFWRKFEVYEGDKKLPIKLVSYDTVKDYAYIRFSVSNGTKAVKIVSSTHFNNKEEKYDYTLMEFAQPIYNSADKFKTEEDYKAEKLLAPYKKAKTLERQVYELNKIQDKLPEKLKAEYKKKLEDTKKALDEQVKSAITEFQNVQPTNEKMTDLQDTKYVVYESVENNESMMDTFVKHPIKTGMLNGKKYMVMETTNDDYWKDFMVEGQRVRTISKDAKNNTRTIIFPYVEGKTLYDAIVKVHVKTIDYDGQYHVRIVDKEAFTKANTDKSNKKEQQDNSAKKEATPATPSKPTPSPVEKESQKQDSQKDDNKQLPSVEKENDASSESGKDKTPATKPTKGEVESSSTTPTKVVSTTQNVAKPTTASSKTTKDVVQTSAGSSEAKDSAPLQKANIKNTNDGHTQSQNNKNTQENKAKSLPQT

B1: STAU-229 clonal variant 3 (recombinant mAb) (antibody, V domains shown)
VH: EVQLVQSGAEVKKPGATVKIPCQVSGYTFTDYYIHWVQQAPGKGLEWMGLVDPEDGETRYAEKFQGRVTITADTSTDTAYMEMSSLTSEDAAVYYCAKPHCTTSSCQRVSGYYFGMDVWGQGTTVTVSS
VL: QSALTQPPSASGSPGQSVTISCTGSSNDVGDYNFVSWYQQHPGKPPKLMIYEVTKRPSGVPDRFFGSKSGNTASLTVSGLQADDEADYYCSSYAGGNSVVFGGGTKLTVL
notes: source: expressed recombinantly with the original light chain and purified
**Q.** What does the source list for B1?
**A.** Kd [1]: 1.44 nM; fold lower avidity than the hybridoma IgG [1]: ~7 times

B2: STAU-229 mAb (hybridoma cell line-expressed IgG) (antibody, V domains shown)
VH: EVQLVQSGAEVKKPGATMKISCKVSGYPFTDYYMHWVQQAPGKGLEWMGLIDPEDGETNYAEKFQGRVTITADTSTDTVYMELSSLRSEDTAVYFCAKPHCSSRTCQRVSGYYFGMDVWGQGTLVTVSS
VL: QSALTQPPSASGSPGQSVTISCTGSSNDVGDYNFVSWYQQHPGKPPKLMIYEVTKRPSGVPDRFFGSKSGNTASLTVSGLQADDEADYYCSSYAGGNSVVFGGGTKLTVL
notes: also called STAU-229 IgG; hybridoma IgG
**Q.** Does B2 bind [1]?
**A.** Result: binds

B3: STAU-307 clonal variant 1 (antibody, V domains shown)
VH: QAQLMQSGAEVKKTGSSVKVSCTASGGTFNTNDLMWVRQAPGQGLEWMGGIVPVFGKPKYAKKFHGRLIITADEYMTTVYMELTSLTFDDTAIYFCARSGSTESPIQDIDFWGQGTQVTVSS
VL: SYVLTQPPSVSVAPGQTATITCGGDNIATFSVHWYRQKPGQAPVLVVYDDLDRASGIPARFSGSNSGNTATLTISRVEPGDEADYFCQVWEISSDEYVFGPGTSVTVL
notes: also called Variant 1 (STAU-307)
**Q.** Does B3 bind [1]?
**A.** Result: binds

B4: STAU-281 mAb (IgG) (antibody, V domains shown)
VH: QVQLVQSGAEVKRPGSSVRVSCKDSGDSFRRYVINWVRQAPGQGLEWMGGIIPIFDKAKSVQKFQDRLTITADESTSTSYMELSSLTSEDTAVYYCARKEDGRRDDVFDIWGQGTLVTVSS
VL: EIVMTQSPATLSVSLGERATLSCRASHSVGSSLAWYQQKPGLAPRLLIYGVSTRATGIPARFSGSGSATEFTLTISSLQSEDLAAYHCQQYDNWPFTFGQGTKLEIK
**Q.** Does B4 bind [1]?
**A.** Result: binds

B5: STAU-399 clonal variant 6 (recombinant mAb) (antibody, V domains shown)
VH: HVQLVQSGAEVKKPGSSLKVSCKGSGGKLRGYGFSWGRQAPGQGLEWMGVIIPIFGAPTYAQKFQGRVTLAADESNNTVFMELSSLRSEDTAVYYCARDWPSITVAVDATNYGMDVWGQGTTVTVSS
VL: QSALTQPRSVSGSPGQSVTISCTGTSNDVGYYDHVSWYQQHPGKAPKFIIYDVSKRPSGVPDRFSGSKSDNTASLTISGLQAEDEADYYCCSFAGSYTYVFGTGTKVTVL
notes: as for B1
**Q.** For B5, which “fold lower EC50 value than the hybridoma IgG” value [2] is on record?
**A.** The value was 18 fold.

**Q.** What about the “fold lower affinity than the hybridoma IgG” value [1] of the same binder?
**A.** The value was 27 fold.

B6: STAU-399 mAb (hybridoma IgG) (antibody, V domains shown)
VH: QVQLVQSGAEVKKPGSSLKVSCKVSGGNLRSYGISWVRQAPGQGLEWMGVIIPIFGTPTYAQKFQGRVTLAADDSNNIVFMELSSLRSEDTAVYYCARDWPSITVAVDATNYGMDVWGQGTLVTVSS
VL: QSALTQPRSVSGSPGQSVTISCTGTSNDVGYYDHVSWYQQHPGKAPKFIIYDVSKRPSGVPDRFSGSKSDNTASLTISGLQAEDEADYYCCSFAGSYTYVFGTGTKVTVL
notes: also called STAU-399 IgG
**Q.** Does B6 bind [1]?
**A.** Result: binds
